Measured values as given in patent US11866760B2, “Microorganisms for the production of insect pheromones and related compounds” (Provivi, Inc., priority 2017, dated 2024).

Key:
S. cerevisiae ΔOLE1 = assay: ΔOLE1 growth complementation assay without UFA; assay type: cell-based, Saccharomyces cerevisiae
Source text: S. cerevisiae ΔOLE1 (MATA OLE1::LEU2 ura3-52 his4) was used as an expression host. A synthetic expression cassette termed pOLE1 (FIG. 10, SEQ ID NO: 4) which comprises the OLE1 promoter region (SEQ ID NOs: 5 and 6), nucleotides encoding for 27 N-terminal amino acids of the OLE1 leader sequence (SEQ ID NO: 7), and a VPS13 terminator sequence (SEQ ID NO: 8) was created, and cloned into pESC-URA vector in between SacI and EcoRI sites. To test the functionality of the pOLE1 cassette, Dasher GFP synthon was inserted in between SpeI and NotI sites to create pOLE1-GFP plasmid. Competent ΔOLE1 was transformed with pOLE1-GFP, and plated on CM-Ura glucose agar plate (Teknova) containing UFA (20 mm CM-URA glucose agar plate was coated with 100 μL CM-Ura glucose medium containing 1% tergitol, and 3 μL palmitoleic acid). […] Validation of ΔOLE1 complementation was performed by restoring OLE1 activity. Specifically, native S. cerevisiae OLE1 synthon was inserted into pOLE1 cassette devoid of the leader sequence to create pOLE1-OLE1 plasmid. After transformation of ΔOLE1, and selection on CM-Ura glucose agar containing UFA, single colonies were patched onto YPD and CM-Ura glucose without UFA. After incubation at 30° C. for 5 days, growth was observed (FIG. 11A-FIG. 11E). As expected, Dasher GFP expression could not complement ΔOLE1 growth without UFA (FIG. 11A-FIG. 11E). DNA sequences which encode for desaturase variants were synthesized (to include nucleotide changes which remove restriction sites used for cloning purposes), and cloned into pOLE1 using SpeI-NotI sites (Genscript, SEQ ID NOs: 9-13). Complementation assay of ΔOLE1 with insect desaturases were performed in the same way as with OLE1 desaturase.

palmitic acid [1] = assay: in vivo bioconversion of palmitic acid into Z11-hexadecenoic acid in Y. lipolytica SPV140 and SPV300; assay type: cell-based, Yarrowia lipolytica; conditions: from ~500 mg/L palmitic acid substrate, 24 well plate assay
Procedure: Functional activity was assessed by a modification of the protocol used for transmembrane desaturase expression in C. viswanathii SPV053 (See Example 6). Briefly, Y. lipolytica SPV140 and SPV300 derived stains expressing insect desaturases were cultured in rich (YPD) to generate biomass. Using the YPD generated biomass, small scale (2 ml) cultures were cultivated with palmitic acid for a total of 48 hours in 24 deep well plates (See Materials & Methods for detail).
Positive isolates were re-patched onto YPD, grown overnight, and then stored at 4° C. Strains were inoculated from patch plates into 2 ml of YPD in 24 deep well plates (square well, pyramid bottom). Three positive clones were inoculated for each desaturase variant. Three isolates of pPV101 in SPV140 and the parent SPV300 were used as negative controls. Deep well plates were incubated at 28° C. and 250 rpm in the Infors Multitron refrigerated flask shaker for 24 hrs. […] Final cell densities were measured with the Tecan Infinite 200pro plate reader. […]
Total lipid composition as well as the (Z)-11-hexadecenoic acid quantification was based on modified procedures by Moss et al. (1982) and Yousuf et al (2010). […] For the analysis of lipids and the quantification of fatty acids 50 μL of 0.2 M TMSH (trimethylsulfonium hydroxide in methanol) was added and the sample analyzed by GC-FID.

palmitic acid [2] = assay: in vivo bioconversion assay of desaturases in C. tropicalis SPV053; assay type: cell-based, Candida tropicalis
Procedure: Functional expression of the heterologous desaturases was characterized by a series of in vivo bioconversion experiments. C. tropicalis SPV053 derived stains expressing insect desaturases were cultured in rich (YPD) or defined (CM glucose) media supplemented with ethanol (for induction) and saturated acid substrates (palmitic acid, methyl palmitate, methyl myristate). Small scale (2 ml) cultures were cultivated for a total of 72 hours in 24 deep well plates with substrate added after the initial 24 hours.
Positive isolates were re-patched onto YPD+300 μg/ml Zeocin and grown overnight and then stored at 4° C. Strains were inoculated from patch plates into 2 ml of YPD in 24 deep well plates (square well, pyramid bottom). Three positive clones were inoculated for each desaturase variant and the mCherry expressing control strain. Deep well plates were incubated at 30° C., 1000 rpm, and 80% humidity in the Infors HT Multitron Pro plate shaker for 24 hrs. After 24 hrs of incubation, cultures were split into equal 1 ml volumes to make two sets of identical plates. Both sets of plates were pelleted by centrifugation at 500×g. One set of plates was resuspended in 2 ml of YPD+0.3% (v/v) ethanol and the second set was resuspended in 2 ml of CM glucose+0.3% ethanol. Ethanol was added at this stage to induce recombinant enzyme expression from the ICL promoter. Cultures were incubated for another 24 hours under the same conditions before 300 mg/L palmitic acid was added to cultures from a 90 g/L stock solution in ethanol. The result was the addition of a fresh 0.3% ethanol in conjunction with the palmitic acid. A subset of strains was also cultured without palmitic acid addition. These cultures had 0.3% ethanol added instead. All cultures were incubated for an additional 24 hrs before a final addition of 0.3% ethanol. After another 24 hr period of incubation, 1.5 ml of each culture was harvested in 1.7 ml microcentrifuge tubes and pelleted. Supernatant was saved in fresh tubes and pellets were processed as described below. A subset of supernatant samples was also extracted to look for free acid in the extracellular medium.
The mCherry control and confirmed positive variants were rescreened using both palmitic acid and methyl palmitate as substrates. The culturing was conducted as described above with equimolar (1.17 mM) amounts of substrate added from ethanol stock solutions (methyl palmitate 94 g/L stock, 313 mg/L final concentration). The same protocol was also repeated with the full panel of strains using an 84 g/L stock of methyl myristate (C14:0). The final concentration of substrate was again 1.17 mM.
The in vivo bioconversion assay was scaled up for confirmation of (Z)-11-hexadecenoic acid synthesis. 2 ml YPD seed cultures of strains SPV0302, SPV0303, and SPV0304 (mCherry), […], SPV0305, and SPV0306 (A. transitella Z11 desaturase), and SPV0307, SPV0308, and SPV0309 (H. zea Z11 desaturase) were grown overnight at 30° C., 1000 rpm, 80% humidity in the Infors HT Multitron plate shaker. 200 μl of overnight culture from each of the three clonal isolates was pooled and inoculated into a single 125 ml baffled flask containing 20 ml YPD. The resulting three flasks were grown for 24 hrs at 30° C. and 250 rpm (Infors Flask shaker). Cultures were pelleted by centrifugation at 500×g and resuspended in 20 ml of YPD+0.3% (v/v) ethanol and returned to 125 ml baffled shake flasks. Cultures were incubated for an additional 24 hours before addition of 300 mg/L palmitic acid in a 90 g/L stock in ethanol (221 μl per flask). After 24 hours of incubation another 0.3% (v/v) ethanol (221 μl) was added to each flask for sustained induction. Flasks were incubated for an additional 24 hours before cells were harvested for FAME analysis and DMDS derivatization.
Total lipid composition as well as the (Z)-11-hexadecenoic acid quantification was based on modified procedures by Moss et al. (1982) and Yousuf et al (2010). […]

[3] = SPV053, supplementation not stated
[4] = SPV053, with palmitic acid supplementation

B1: H. zea desaturase: Helicoverpa zea Z11 desaturase (AAF81787), SEQ ID NO: 54 (protein, listed as Helicoverpa zea)
chain: MAQSYQSTTVLSEEKELTLQHLVPQASPRKYQIVYPNLITFGYWHIAGLYGLYLCFTSAKWATILFSYILFVLAEIGITAGAHRLWAHKTYKAKLPLEILLMVFNSIAFQNSAIDWVRDHRLHHKYSDTDADPHNASRGFFYSHVGWLLVRKHPEVKKRGKELNMSDIYNNPVLRFQKKYAIPFIGAVCFALPTMIPVYFWGETWSNAWHITMLRYIMNLNVTFLVNSAAHIWGNKPYDAKILPAQNVAVSVATGGEGFHNYHHVFPWDYRAAELGNNSLNLTTKFIDLFAAIGWAYDLKTVSEDMIKQRIKRTGDGTDLWGHEQNCDEVWDVKDKSS
- rescue of ΔOLE1 growth without UFA (S. cerevisiae ΔOLE1; minimal medium (CM-Ura glucose) agar plate): conferred growth without UFA
- rescue of ΔOLE1 growth without UFA (S. cerevisiae ΔOLE1; rich medium (YPD) agar plate): conferred growth without UFA
- Z11-hexadecenoic acid production (palmitic acid [1]): ~100 mg/L
- (Z)-11-hexadecenoic acid titer (palmitic acid [2]; SPV053): ~5.96 mg/L
- activity on myristoyl-CoA (palmitic acid [2]; SPV053, methyl myristate substrate): some activity on myristoyl-CoA
- (Z)-11/(Z)-9 hexadecenoic acid ratio (palmitic acid [2]; SPV053, palmitic acid supplemented): 1.4
- (Z)-9-hexadecenoic acid in C16-fatty acid composition (palmitic acid [2]; [3]): ~30.91%
- (Z)-11-hexadecenoic acid in C16-fatty acid composition (palmitic acid [2]; [3]): ~19.1%
- hexadecanoic acid in C16-fatty acid composition (palmitic acid [2]; [3]): approximately 50.0%
- (Z)-9-hexadecenoic acid in C16-fatty acid composition (palmitic acid [2]; [4]): 17.5%
- (Z)-11-hexadecenoic acid in C16-fatty acid composition (palmitic acid [2]; [4]): 24.4%
- hexadecanoic acid in C16-fatty acid composition (palmitic acid [2]; [4]): 58.1%
- (Z)-11/(Z)-9 hexadecenoic acid ratio (palmitic acid [2]; SPV053, without palmitic acid supplementation): 0.6
